Values quoted from earlier work, collected in PMC5430633.

Target: LC3B (Homo sapiens) (UniProt Q9GZQ8)

Kd: 91 µM
Substance: Nix LIR (from UniProt O60238)
